Measured values published in PMC12221994.

What was measured:
[1] = biological target: KU70/80;DNA-PKcs (human;human, UniProt P12956;P13010;P78527 1-609;1-732;1-4128, |); experiment: KU pull-down; DNA-PKcs associates with KU in a DNA-dependent manner; Footprinting: 25 mM HEPES pH 7.6, 80 mM KCl, 1.5 mM CaCl2, 1.5 mM MgCl2, 5% glycerol, 50 ug/ml BSA, 2 mM DTT, ice then 37 C (EMSA same buffer, 37 C); pull-down: 20 mM HEPES pH 7.6, 80 mM KCl, 5% glycerol, 0.01% NP-40, 1 mM DTT, 30 C; cryo-EM: 40 mM HEPES pH 7.6, 100 mM NaCl, 3 mM MgCl2, 4 C; conditions: protein: recombinant;native; tags: FLAG (KU70 N-terminal);; copies: 1;1;1; blunt
[2] = biological target: KU70/80;DNA-PKcs;TRF2 (human;human;human, UniProt P12956;P13010;P78527;Q15554 1-609;1-732;1-4128;1-542, ||); experiment: KU pull-down; TRF2 association with KU mediated by template DNA; Footprinting: 25 mM HEPES pH 7.6, 80 mM KCl, 1.5 mM CaCl2, 1.5 mM MgCl2, 5% glycerol, 50 ug/ml BSA, 2 mM DTT, ice then 37 C (EMSA same buffer, 37 C); pull-down: 20 mM HEPES pH 7.6, 80 mM KCl, 5% glycerol, 0.01% NP-40, 1 mM DTT, 30 C; cryo-EM: 40 mM HEPES pH 7.6, 100 mM NaCl, 3 mM MgCl2, 4 C; conditions: protein: recombinant;native;recombinant; tags: FLAG (KU70 N-terminal);;dual strep; copies: 1;1;1;2; blunt

B1: PE3/PE4 telomeric duplex (dsDNA)
DNA 1: CGTCTATATTCTATTGTCTCTTAGGGTTAGGGTTAGGGTTAGGGTTAGGGTTAGGGTTAGGGTTAGGGTTAACATCAGTCTCACATAGATTAGCTCACGC
DNA 2: GCGTGAGCTAATCTATGTGAGACTGATGTTAACCCTAACCCTAACCCTAACCCTAACCCTAACCCTAACCCTAACCCTAAGAGACAATAGAATATAGACG
[1]
  binding result: binds
[2]
  binding result: binds
